Where a chain is given by its changes, count along the chain named. Names and notes keep the numbering of the source.
Experiments:
[1] = target: T1, Carcino Embryonic Antigen (UniProt P06731 35-685, limits assumed); experiment: ELISA on coated CEA
T1 construct: also called CEA; CEA tumor antigen
T1 sequence (looked up): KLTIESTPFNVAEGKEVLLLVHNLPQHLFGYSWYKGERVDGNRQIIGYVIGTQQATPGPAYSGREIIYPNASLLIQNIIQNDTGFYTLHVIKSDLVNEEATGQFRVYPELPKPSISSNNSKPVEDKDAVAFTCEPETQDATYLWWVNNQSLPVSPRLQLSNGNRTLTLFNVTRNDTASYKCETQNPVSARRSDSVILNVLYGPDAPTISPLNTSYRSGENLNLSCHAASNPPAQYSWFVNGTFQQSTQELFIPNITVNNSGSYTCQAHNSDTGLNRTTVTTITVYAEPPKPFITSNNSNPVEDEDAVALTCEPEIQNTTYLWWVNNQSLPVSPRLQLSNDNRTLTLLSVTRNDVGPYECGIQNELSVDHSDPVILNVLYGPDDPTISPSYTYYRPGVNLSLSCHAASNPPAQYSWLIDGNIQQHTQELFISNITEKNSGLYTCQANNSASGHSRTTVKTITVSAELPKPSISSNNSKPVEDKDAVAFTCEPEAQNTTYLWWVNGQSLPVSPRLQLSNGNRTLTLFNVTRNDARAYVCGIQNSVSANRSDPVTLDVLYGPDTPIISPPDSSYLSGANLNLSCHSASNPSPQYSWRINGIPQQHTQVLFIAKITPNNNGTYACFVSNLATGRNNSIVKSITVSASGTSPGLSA
Procedure: A microtiter plate (Maxisorp, NUNC) was coated overnight at 4° C. with CEA (Scripps) at a concentration of 1 μg/ml (in PBS), and blocked for two hours at room temperature (RT) with 300 μl 1% casein in PBS. The plates were washed three times with PBS-tween. […] Plates were washed six times with PBS-tween, after which binding of VHH was detected by incubation with mouse anti-Histidine mAB (Serotec; 1:1000 diluted; 100 μl/well) for 1 hour at RT followed by anti-mouse-alkaline phosphatase conjugate (Sigma, 1:2000 diluted), also for 1 hour at RT. Staining was performed with the substrate PNPP (p-nitrophenyl-phosphate, 2 mg/ml in 1M diethanolamine, 1 mM Mg₂SO₄, pH9.8) and the signals were measured after 30 minutes at 405 nm.

[2] = target: T1, Carcino Embryonic Antigen; experiment: column 'Antigen recognized by antibody'
[3] = target: T2, Prostate Specific Antigen (UniProt P07288 25-261); experiment: BIAcore
T2 construct: also called PSA

[4] = target: T2, Prostate Specific Antigen; experiment: column 'Antigen recognized by antibody'
human serum albumin = target: T3, human serum albumin (human, UniProt P02768 25-609); experiment: column 'Antigen recognized by antibody'
T3 construct: also called HSA

[5] = target: humanized mouse mAb to CD40; experiment: BIAcore
TEM1 [6] = target: T4, TEM1 (UniProt P62593 24-286); experiment: column 'Antigen recognized by antibody'
T4 construct: also called β-lactamase; b-lactamase

TEM1 [7] = target: T4, TEM1; experiment: IMAC co-purification, Coomassie stained PAGE
β-lactamase = experiment: BIAcore

T2 sequence (P07288 25-261 limits assumed): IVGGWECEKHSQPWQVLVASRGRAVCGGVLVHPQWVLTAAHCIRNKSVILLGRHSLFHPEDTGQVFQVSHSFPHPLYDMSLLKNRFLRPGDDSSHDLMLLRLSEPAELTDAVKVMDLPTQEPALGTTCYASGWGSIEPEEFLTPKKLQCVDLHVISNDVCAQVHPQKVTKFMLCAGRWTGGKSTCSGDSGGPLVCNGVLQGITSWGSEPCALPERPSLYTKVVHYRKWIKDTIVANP
T3 sequence (P02768 25-609 limits assumed): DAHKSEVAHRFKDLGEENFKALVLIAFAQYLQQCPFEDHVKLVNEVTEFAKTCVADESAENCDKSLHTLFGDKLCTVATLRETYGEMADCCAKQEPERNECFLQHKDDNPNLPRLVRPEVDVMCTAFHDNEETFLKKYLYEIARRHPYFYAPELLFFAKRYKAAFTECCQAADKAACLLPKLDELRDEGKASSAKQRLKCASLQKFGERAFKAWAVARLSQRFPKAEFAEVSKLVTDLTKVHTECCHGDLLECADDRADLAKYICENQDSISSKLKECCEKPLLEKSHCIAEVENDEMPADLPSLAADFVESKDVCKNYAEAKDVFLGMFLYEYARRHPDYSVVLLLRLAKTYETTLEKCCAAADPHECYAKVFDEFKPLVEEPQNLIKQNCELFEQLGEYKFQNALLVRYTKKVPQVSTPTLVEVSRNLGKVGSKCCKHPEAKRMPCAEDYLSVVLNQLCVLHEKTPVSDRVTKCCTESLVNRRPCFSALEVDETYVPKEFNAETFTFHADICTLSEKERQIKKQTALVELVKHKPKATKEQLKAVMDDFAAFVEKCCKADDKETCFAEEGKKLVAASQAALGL
T4 sequence (P62593 24-286 limits assumed): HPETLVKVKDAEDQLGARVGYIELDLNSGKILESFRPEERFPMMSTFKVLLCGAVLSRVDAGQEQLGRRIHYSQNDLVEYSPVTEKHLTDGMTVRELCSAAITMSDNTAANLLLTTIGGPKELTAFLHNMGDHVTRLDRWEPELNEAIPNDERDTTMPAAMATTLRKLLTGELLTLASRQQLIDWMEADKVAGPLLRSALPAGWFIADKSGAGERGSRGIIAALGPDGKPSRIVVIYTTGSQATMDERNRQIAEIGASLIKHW

B1: anti-carcinoembryonic antigen VHH CEA71 (wild type) (VHH)
VHH: QVQLVESGGGLVQPGGSLRLSCAASGFTFSSSYMSWVRQAPGKGLEWVSGINTDGSFTRYADSVKGRFTISRDNAKNTLYLQMNSLKSEDTALYYCAVGGGLGYGPRGQGTLVTVSS
notes: also called CEA71 WT; CEA wild type VHH
[1]
  fold lower concentration at which it binds, against the R103W mutant: ~10 fold

B2: CEA72 (VHH)
VHH: B1 VHH with G26E, L112Q
notes: Dromedary single domain; purified on Ni-NTA
[2]
  binding result: binds

B3: C1-B (VHH)
VHH: DVQLQESGGGLVQPGGSLRLSCAASGFTFSTSYMTWARQAPGKGLEWVSGINRDGNNPLYADSVEGRFTVSRDNAKNTLYLQMNSLKSEDTALYYCVAGALVAGARGQGTQVTVSS
notes: as for B2
[3]
  Kd: 0.8 nM

B4: C9-B (VHH)
VHH: DVQLQESGGGLVQPGGSLRLSCAASGFTFSNHYMTWVRQAPGKGLEWVSVISNDGRYTDYADSVKGRFTISRDNAKNTLYLQMNSLKTEDTALYTCVRGYYLTNLPAGDRGQGTQVTVSS
notes: as for B2
[3]
  Kd: 3.9 nM

B5: C24-A (VHH)
VHH: B4 VHH with T28A, S30T, N31P, H32S, T35S
notes: as for B2
[4]
  binding result: binds

B6: N13-A (VHH)
VHH: DVQLQESGGGSVQPGGSLRLSCAASGFTFKDASMNWVRQAPGKGLEWVSAINGGGTVTDYADPMEGRFTISRDNAKNTLYLQMNSLNFEDTALYYCATGWLFRANNYRGQGTQVTVSS
notes: as for B2
[4]
  binding result: binds

B7: N8-B (VHH)
VHH: DVQLQESGGGLVQPGGSLRLSCAASGFLFSDTYMTWARQAPGKGLEWLGGISKDGSGTLYEDSVEGRFTISRDNAKNTLYLQMNSLKSEDTALYYCSTGALLPTRPQGQGTQVTVSS
notes: as for B2
[3]
  Kd: 1.6 nM

B8: C12-A (VHH)
VHH: B7 VHH with Q13R, D31G, G49C, S52N, E61A, I70C
notes: as for B2
[3]
  Kd: 2.6 nM

B9: N3-A (VHH)
VHH: DVQLQESGGSLVQPGGSLRLSCAASGFTFSAYYMIWVRQAPGKGLEWVSGISANGRDTLYEDSVEGRFAISRDNAKNTLYLQMNSLRSEDTALYYCVIGALITGRRGQGTQVTVSS
notes: as for B2
[4]
  binding result: binds

B10: C11-B (VHH)
VHH: B9 VHH with S10G, T28I, A31N, Y32T, I35T, N54D, E61A, I98T, I102M
notes: as for B2
[3]
  Kd: 2.6 nM

B11: ALB-2 (VHH)
VHH: QVQLQESGGGLVQPGGSLRLTCTASGFAFSNFGMSWVRQPPGKGLEWVSAISADSSTKNYADSVKGRFTISRDNTKKMLYLEMNSLKPEDTAVYHCVIGRGSASSQGTQVTVSS
notes: Llama single domain; purified on Ni-NTA
Human serum albumin
  binding result: binds

B12: ALB-5 (VHH)
VHH: B11 VHH with N31S, T75D, S85K, A103P
notes: as for B11
Human serum albumin
  binding result: binds

B13: N15-B (VHH)
VHH: DVQLQESGGGSVQAGGSLRLACAATAYTYDSNVLGWFRQAPGKEHEGVAVIYTGTRTTYYADSVKGRFTISQDNAKNTVYLQMNSLKPGDTAMYFCAANVRLGGVWSFDYRGQGTQVTVSS
notes: as for B2
[4]
  binding result: binds

B14: CEA1 (VHH)
VHH: QVQLVESGGGLVQPGGSLRLSCAASGFTFSKYDMSWVRQAPGKGLEWVSRISSGGGSTYYADSVKGRFTISRDNAKNTLYLQMNSLKPEDTAVYYCATPTYSSDYRGLPPGQGTQVTVSS
notes: as for B2
[2]
  binding result: binds

B15: ALB-4 (VHH)
VHH: QVQLQESGGGLVQPGNSLRLSCAASGFSFRSFGMSWVRQAPGKGPEWVSSINSSGDDTRYTDSVKGRFTISRDNAKSTLYLQMNSLKPEDTAVYYCTIGSSISRSSQGTQVTVSS
notes: as for B11
Human serum albumin
  binding result: binds

B16: CD40-1 (VHH)
VHH: QVQLVESGGGLVQPGGSLRLSCAASGFAFSRYSMYWVRQAPGKGLEWVSEIYPDGNGWYTSSVKGRFTISRDNDKNMLYLQMNSLKPDDTAVYYCALSRSGQGRGQGTRVTVSS
[5]
  Kd: 2 nM

B17: ALB-1 (VHH)
VHH: QVQLQESGGGLVQPGGSLRLSCAASGFAFSSFPMTWVRQAPGKGLEWVSGILEGGGSPAYADSVKGRFTISRDDAKNTLYLQMNSLKPEDTAVYYCAKGYVYAREGARSQGTQVTVSS
notes: as for B11
Human serum albumin
  binding result: binds

B18: anti-β-lactamase VHH TEM04 (wild type) (VHH)
VHH: QVQLVESGGGLVQAGGSLRLSCAASGFTFSSAWMTWVRQAPGKGLEWVTSIATDGSTDYADSVKGRFTISRDNAKNTLYLQLNSLNTEDTAVYYCAKDRWGYVVRGQGTQVTVSS
notes: also called cAbTEM04
TEM1 [6]
  binding result: binds

B19: anti-β-lactamase VHH TEM04 R103W mutant (VHH)
VHH: B18 VHH with R105W
notes: also called VHH TEM04 mutant; TEM04 W (mutant)
TEM1 [7]
  binding result: binds

B20: cAbBLA01 (VHH)
VHH: QLQLVESGGGSVQSGGSLRLSCKVSGYIGSTNCMGWFRQAPGKEREGVASLFTGSGNTYYGDSVKGRFTISEDNAKNTVSLQMNSLKPEDTAMYYCASSSNVGSDESCGRKNTRQFVYTYQGQGTQVTVSS
β-lactamase
  Kd: < 1 nM

B21: ALB-3 (VHH)
VHH: QVQLQESGGGLVQPGNSLRLSCAASGFAFGNFGMSWVRQAPGKEPEWVSSIDSIGSDTLYADFVKGRFTISRDNAKSTLYLQMNSLKPEDTAVYYCTIGGSLSRSSQGTQVTVSS
notes: as for B11
Human serum albumin
  binding result: binds

Reference: patent US20120172578A1 (VLAAMS INTERUNIVERSITAIR INSTITUUT VOOR BIOTECHNOLOGIE, published 2012)
